# Laboratory results as given in paper PMC11574045, “A cofactor-induced repressive type of transcription factor condensation can be induced by synthetic peptides to suppress tumorigenesis” (The EMBO Journal, 2024).
# B1: NPM2 (protein, UniProt Q86SE8 1-214, looked up)
# Nucleoplasmin-2: MNLSSASSTEEKAVTTVLWGCELSQERRTWTFRPQLEGKQSCRLLLHTICLGEKAKEEMHRVEILPPANQEDKKMQPVTIASLQASVLPMVSMVGVQLSPPVTFQLRAGSGPVFLSGQERYEASDLTWEEEEEEEGEEEEEEEEDDEDEDADISLEEQSPVKQVKRLVPQKQASVAKKKKLEKEEEEIRASVRDKSPVKKAKATARAKKPGFKK
# B2: NR0B1/DAX1 (protein, UniProt P51843 1-470, looked up)
# Nuclear receptor subfamily 0 …: MAGENHQWQGSILYNMLMSAKQTRAAPEAPETRLVDQCWGCSCGDEPGVGREGLLGGRNVALLYRCCFCGKDHPRQGSILYSMLTSAKQTYAAPKAPEATLGPCWGCSCGSDPGVGRAGLPGGRPVALLYRCCFCGEDHPRQGSILYSLLTSSKQTHVAPAAPEARPGGAWWDRSYFAQRPGGKEALPGGRATALLYRCCFCGEDHPQQGSTLYCVPTSTNQAQAAPEERPRAPWWDTSSGALRPVALKSPQVVCEAASAGLLKTLRFVKYLPCFQVLPLDQQLVLVRNCWASLLMLELAQDRLQFETVEVSEPSMLQKILTTRRRETGGNEPLPVPTLQHHLAPPAEARKVPSASQVQAIKCFLSKCWSLNISTKEYAYLKGTVLFNPDVPGLQCVKYIQGLQWGTQQILSEHTRMTHQGPHDRFIELNSTLFLLRFINANVIAELFFRPIIGTVSMDDMMLEMLCTKI
# B3: ATF3 (protein, UniProt P18847 1-181, looked up)
# Cyclic AMP-dependent …: MMLQHPGQVSASEVSASAIVPCLSPPGSLVFEDFANLTPFVKEELRFAIQNKHLCHRMSSALESVTVSDRPLGVSITKAEVAPEEDERKKRRRERNKIAAAKCRNKKKEKTECLQKESEKLESVNAELKAQIEELKNEKQHLIYMLNLHRPTCIVRAQNGRTPEDERNLFIQQIKEGTLQS
# B4: NKX6-3 (protein, UniProt A6NJ46 1-265, looked up)
# Homeobox protein Nkx-6.3: MESNLQGTFLLNNTPLAQFPEMKAPVCQYSVQNSFYKLSPPGLGPQLAAGTPHGITDILSRPVAAPNNSLLSGYPHVAGFGGLSSQGVYYSPQVGNFSKAGNEYPTRTRNCWADTGQDWRGGRQCSNTPDPLSDSIHKKKHTRPTFTGHQIFALEKTFEQTKYLAGPERARLAYSLGMTESQVKVWFQNRRTKWRKKSALEPSSSTPRAPGGAGAGAGGDRAPSENEDDEYNKPLDPDSDDEKIRLLLRKHRAAFSVLSLGAHSV
# B5: NKX2-8 (protein, UniProt O15522 1-239, looked up)
# Homeobox protein Nkx-2.8: MATSGRLSFTVRSLLDLPEQDAQHLPRREPEPRAPQPDPCAAWLDSERGHYPSSDESSLETSPPDSSQRPSARPASPGSDAEKRKKRRVLFSKAQTLELERRFRQQRYLSAPEREQLASLLRLTPTQVKIWFQNHRYKLKRARAPGAAESPDLAASAELHAAPGLLRRVVVPVLVRDGQPCGGGGGGEVGTAAAQEKCGAPPAAACPLPGYPAFGPGSALGLFPAYQHLASPALVSWNW
# B6: NKX2-6 (protein, UniProt A6NCS4 1-301, looked up)
# Homeobox protein Nkx-2.6: MLLSPVTSTPFSVKDILRLERERSCPAASPHPRVRKSPENFQYLRMDAEPRGSEVHNAGGGGGDRKLDGSEPPGGPCEAVLEMDAERMGEPQPGLNAASPLGGGTRVPERGVGNSGDSVRGGRSEQPKARQRRKPRVLFSQAQVLALERRFKQQRYLSAPEREHLASALQLTSTQVKIWFQNRRYKCKRQRQDKSLELAGHPLTPRRVAVPVLVRDGKPCLGPGPGAPAFPSPYSAAVSPYSCYGGYSGAPYGAGYGTCYAGAPSGPAPHTPLASAGFGHGGQNATPQGHLAATLQGVRAW
# B7: NKX6-2 (protein, UniProt Q9C056 1-277, looked up)
# Homeobox protein Nkx-6.2: MDTNRPGAFVLSSAPLAALHNMAEMKTSLFPYALQGPAGFKAPALGGLGAQLPLGTPHGISDILGRPVGAAGGGLLGGLPRLNGLASSAGVYFGPAAAVARGYPKPLAELPGRPPIFWPGVVQGAPWRDPRLAGPAPAGGVLDKDGKKKHSRPTFSGQQIFALEKTFEQTKYLAGPERARLAYSLGMTESQVKVWFQNRRTKWRKRHAVEMASAKKKQDSDAEKLKVGGSDAEDDDEYNRPLDPNSDDEKITRLLKKHKPSNLALVSPCGGGAGDAL
# Test system: HEK293FT cells transfected with TF library
# Experiment: Screening of TF condensates based on fluorescent puncta
# Format: cell-based
# Details: Figure 1B numerical data; TF library screen, one value per transcriptional factor
# Outline: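 HEK293FT cells were reverse-transfected with Flag- or GAL4-tagged TF plasmids (1.6 μg/ml, PEI). After 60 h, cells were cultured 12 h with or without glucose, then fixed and immunostained with anti-Flag or anti-GAL4 and Alexa 488 secondaries. Fluorescent puncta were imaged over fifty random fields per well by high-content imaging.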
row,Molecule,Z score of condensed fraction
1,B1,1.0628
2,B2,-0.574
3,B3,-0.2156
4,B4,-0.571
5,B5,-0.6353
6,B6,-0.7176
7,B7,-0.6325
